Source: publication PMC6101370

T1: histidine kinase EnvZ from Escherichia coli (Escherichia coli) (UniProt P0AEJ4)
T1 sequence (P0AEJ4 whole entry, looked up): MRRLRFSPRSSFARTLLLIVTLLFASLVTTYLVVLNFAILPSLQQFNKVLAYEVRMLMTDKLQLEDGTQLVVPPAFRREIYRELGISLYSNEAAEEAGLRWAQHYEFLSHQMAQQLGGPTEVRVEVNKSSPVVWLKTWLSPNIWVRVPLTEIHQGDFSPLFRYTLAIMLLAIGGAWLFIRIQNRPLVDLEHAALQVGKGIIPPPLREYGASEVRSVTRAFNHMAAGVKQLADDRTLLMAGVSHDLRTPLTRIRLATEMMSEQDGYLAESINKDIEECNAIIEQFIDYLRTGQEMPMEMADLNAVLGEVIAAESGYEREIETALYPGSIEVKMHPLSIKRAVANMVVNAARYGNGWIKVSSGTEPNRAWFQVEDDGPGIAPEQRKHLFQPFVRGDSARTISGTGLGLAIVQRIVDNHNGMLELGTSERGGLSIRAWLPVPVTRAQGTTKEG


Biological target: T1, histidine kinase EnvZ from Escherichia coli (Escherichia coli)

in vitro phosphotransfer rate from EnvZ, ratio v (mutant) / v (w.t.)	Binder
1	Spo0F M55L (natural protein) MMNEKILIVDDQYGIRILLNEVFNKEGYQTFQAANGLQALDIVTKERPDLVLLDLKIPGMDGIEILKRMKVIDENIRVIIMTAYGELDMIQESKELGALTHFAKPFDIDEIRDAVKKYLPLKSN
1	Spo0F I108L (natural protein) MMNEKILIVDDQYGIRILLNEVFNKEGYQTFQAANGLQALDIVTKERPDLVLLDMKIPGMDGIEILKRMKVIDENIRVIIMTAYGELDMIQESKELGALTHFAKPFDLDEIRDAVKKYLPLKSN
